The values below come from PMC12375888 (Febs Letters, 2025).

The Kd is the concentration at which binding is half-saturated. A lower Kd goes with a tighter complex. What is called stoichiometry N is a count of units in the complex or per binding partner.

In assay [1] the target is T1, Mycobacterium tuberculosis thiosulfate sulfurtransferase SseA (Mycobacterium tuberculosis, UniProt P9WHF7 1-297, RED-NHS dye on primary amines (lysine residues), degree of labeling ~0.5, in the MST experiment only).
T1 construct: Tag-free after TEV cleavage; labelled with the RED-NHS dye for MST, unlabelled in ITC and SEC; also called Mtb SseA; Rv3283
T1 sequence: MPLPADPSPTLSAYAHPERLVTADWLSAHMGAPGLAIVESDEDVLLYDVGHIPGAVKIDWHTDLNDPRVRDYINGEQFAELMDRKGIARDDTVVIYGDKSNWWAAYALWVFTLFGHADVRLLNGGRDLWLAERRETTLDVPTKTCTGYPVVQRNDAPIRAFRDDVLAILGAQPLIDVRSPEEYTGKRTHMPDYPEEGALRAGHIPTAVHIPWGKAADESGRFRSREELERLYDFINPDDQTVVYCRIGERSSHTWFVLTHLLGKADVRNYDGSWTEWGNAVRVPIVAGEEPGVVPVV
Put plainly: MST; 10 nM SseA labelled with RED-NHS dye, label-free SufE Mtb titrated from 1.5 nM to 50 uM; 25 °C, 50 mM sodium phosphate pH 7.8, 0.05% Tween-20; Monolith NT.115. The note with it: both partners purified.

In assay [2] the target is T1, Mycobacterium tuberculosis thiosulfate …. Put plainly: ITC; 10 uM SseA in the cell titrated with 100 uM SufE; PBS pH 8.0 (phosphate 20 mM, NaCl 150 mM, DTT 2 mM), 25 °C; single binding site model. Particulars: both partners purified.
For assay [3] the target is unchanged. Put plainly: cell-based or functional assay.

B1: Mycobacterium tuberculosis SufE-like protein Rv3284 (SufE Mtb) (natural protein)
chain: MTAPASLPAPLAEVVSDFAEVQGQDKLRLLLEFANELPALPSHLAESAMEPVPECQSPLFLHVDASDPNRVRLHFSAPAEAPTTRGFASILAAGLDEQPAADILAVPEDFYTELGLAALISPLRLRGMSAMLARIKRRLREAD
notes: Tag-free after TEV cleavage; also called SseE; not shown: His6, N-terminal, cleaved; GST, N-terminal, cleaved
In the case of B1, the Kd in assay [1] stood at 3 ± 0.7 µM. In addition, in assay [2], the Kd stood at 3.3 ± 0.6 µM, the dH was -11.6 kcal/mol and the “stoichiometry N” value is 1. For the same molecule, in assay [3], the “thiosulfate:cyanide sulfurtransferase activity of 10 uM SseA with increasing SufE Mtb (10-100 uM)” value was 4 fold.
